Measurements: PMC4431682, “Est10: A Novel Alkaline Esterase Isolated from Bovine Rumen Belonging to the New Family XV of Lipolytic Enzymes” (PLoS ONE, 2015)

Assays:
Experiment in all cases: purified protein
Type in all cases: biochemical, uncultured bacterium
Settings in all cases: hydrolysis, conditions of the kinetic assay not stated separately (general pNP assay: 100 mM sodium phosphate pH 8.0, Triton, 40 °C)
[1] = test system: T1, CC(=O)Oc1ccc([N+](=O)[O-])cc1
T1 construct: whole 367-residue ORF with its putative signal peptide, N-terminal 6xHis (pET14b), E. coli BL21(DE3) pLysS, Ni-NTA; forward primer codes MIMKKQNFF; GHSQG with Ser189

[2] = test system: T2, CCCC(=O)Oc1ccc([N+](=O)[O-])cc1
T2 construct: whole 367-residue ORF with its putative signal peptide, N-terminal 6xHis (pET14b), E. coli BL21(DE3) pLysS, Ni-NTA; forward primer codes MIMKKQNFF; GHSQG with Ser189

[3] = test system: T3, CCCCCCCCCC(=O)Oc1ccc([N+](=O)[O-])cc1
T3 construct: whole 367-residue ORF with its putative signal peptide, N-terminal 6xHis (pET14b), E. coli BL21(DE3) pLysS, Ni-NTA; forward primer codes MIMKKQNFF; GHSQG with Ser189

For Est10 (uncultured bacterium), the Km [1] was 0.3 (0.1) mM, the kcat [1] was 0.22 s⁻¹ and the kcat/Km [1] was 800 M⁻¹ s⁻¹. For the same substance, the Km [2] was 0.16 (0.02) mM, the kcat [2] was 3.1 s⁻¹ and the kcat/Km [2] was 19000 M⁻¹ s⁻¹. For the same substance, the Km [3] was 0.35 (0.06) mM, the kcat [3] was 0.72 s⁻¹ and the kcat/Km [3] was 2100 M⁻¹ s⁻¹.
